Assays:
[1] = target: Torpedo californica acetylcholinesterase (Torpedo californica) (UniProt P04058); test: titration of enzyme activity
[2] = target: Torpedo californica acetylcholinesterase (Torpedo californica) (UniProt P04058); test: kinetics of approach to equilibrium by enzyme activity
[3] = target: T1, Torpedo californica acetylcholinesterase (Torpedo californica, UniProt P04058 22-564); test: as above
[4] = target: T1, Torpedo californica acetylcholinesterase; test: titration of enzyme activity

Molecule	Kd [1]	Kd [2]	koff [2]	kon [2]	Kd [3]	koff [3]	kon [3]	Kd [4]
fasciculin double mutant T8V/T9N (natural protein)	640 pM	600 pM	0.0505 s⁻¹	8.5e+07 M⁻¹ s⁻¹	–	–	–	–
fasciculin mutant H29R (natural protein)	52 pM	30 pM	0.0127 s⁻¹	3.9e+08 M⁻¹ s⁻¹	–	–	–	–
fasciculin mutant K32R (natural protein)	2300 pM	2600 pM	0.09 s⁻¹	–	–	–	–	–
fasciculin mutant R11K (natural protein)	530 pM	630 pM	0.0293 s⁻¹	4.7e+07 M⁻¹ s⁻¹	–	–	–	–
fasciculin mutant T8V (natural protein)	125 pM	–	–	–	–	–	–	–
fasciculin mutant T9N (natural protein)	2800 pM	–	–	–	–	–	–	–
recombinant wild-type fasciculin-2 (natural protein) TMCYSHTTTSRAILTNCGENSCYRKSRRHPPKMVLGRGCGCPPGDDNLEVKCCTSPDKCNY	–	–	–	–	370 pM	0.025 s⁻¹	6.8e+07 M⁻¹ s⁻¹	310 pM

Source: publication PMC2742391 (Protein Engineering, Design and Selection, 2009)
